B1: M103205H795-MY124/M103202L889-SK1 (antibody, human IgG1, kappa)
heavy: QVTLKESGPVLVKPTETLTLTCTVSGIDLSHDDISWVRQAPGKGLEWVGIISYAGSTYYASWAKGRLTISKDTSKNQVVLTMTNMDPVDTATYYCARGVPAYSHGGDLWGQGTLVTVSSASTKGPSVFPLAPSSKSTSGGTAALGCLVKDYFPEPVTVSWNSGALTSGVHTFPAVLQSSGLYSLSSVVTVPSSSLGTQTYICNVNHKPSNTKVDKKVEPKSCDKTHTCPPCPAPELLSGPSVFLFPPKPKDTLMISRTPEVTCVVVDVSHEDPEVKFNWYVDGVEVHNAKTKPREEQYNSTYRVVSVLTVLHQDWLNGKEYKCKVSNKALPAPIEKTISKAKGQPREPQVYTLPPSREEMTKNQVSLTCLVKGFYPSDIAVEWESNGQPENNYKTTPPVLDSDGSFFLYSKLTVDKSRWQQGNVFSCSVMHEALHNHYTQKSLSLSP
light: DIVMTQSPATLSLSPGERATLSCTSSQSVYHANWLSWFQQKPGQPPKLLIYWASTLAYGVPSRFSGSGSGTDFTLTISSLQPEDAATYYCAGGYGGGRYAFGQGTKVEIKRTVAAPSVFIFPPSDEQLKSGTASVVCLLNNFYPREAKVQWKVDNALQSGNSQESVTEQDSKDSTYSLSSTLTLSKADYEKHKVYACEVTHQGLSSPVTKSFNRGEC
notes: Substitution put into M103205H795-SG1
B2: M103205H795-MY196/M103202L889-SK1 (antibody, human IgG1, kappa)
heavy: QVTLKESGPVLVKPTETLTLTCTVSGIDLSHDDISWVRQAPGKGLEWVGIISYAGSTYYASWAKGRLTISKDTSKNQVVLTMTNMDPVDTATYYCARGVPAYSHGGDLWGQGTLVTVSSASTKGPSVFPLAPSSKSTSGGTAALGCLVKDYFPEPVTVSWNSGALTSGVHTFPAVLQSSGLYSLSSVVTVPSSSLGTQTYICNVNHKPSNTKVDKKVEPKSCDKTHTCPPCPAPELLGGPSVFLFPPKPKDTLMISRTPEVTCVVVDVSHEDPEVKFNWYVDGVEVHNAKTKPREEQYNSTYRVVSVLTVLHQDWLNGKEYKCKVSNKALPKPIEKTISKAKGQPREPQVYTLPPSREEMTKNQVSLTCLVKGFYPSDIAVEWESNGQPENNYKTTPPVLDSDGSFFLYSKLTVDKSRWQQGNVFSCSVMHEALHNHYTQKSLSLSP
light: DIVMTQSPATLSLSPGERATLSCTSSQSVYHANWLSWFQQKPGQPPKLLIYWASTLAYGVPSRFSGSGSGTDFTLTISSLQPEDAATYYCAGGYGGGRYAFGQGTKVEIKRTVAAPSVFIFPPSDEQLKSGTASVVCLLNNFYPREAKVQWKVDNALQSGNSQESVTEQDSKDSTYSLSSTLTLSKADYEKHKVYACEVTHQGLSSPVTKSFNRGEC
notes: as for B1

Molecular target: T1, human FcγRIIaH extracellular domain, His-tagged (human, UniProt P12318 34-217)
T1 construct: also called human FcγRIIa (type H); FcgRIIaH
T1 sequence: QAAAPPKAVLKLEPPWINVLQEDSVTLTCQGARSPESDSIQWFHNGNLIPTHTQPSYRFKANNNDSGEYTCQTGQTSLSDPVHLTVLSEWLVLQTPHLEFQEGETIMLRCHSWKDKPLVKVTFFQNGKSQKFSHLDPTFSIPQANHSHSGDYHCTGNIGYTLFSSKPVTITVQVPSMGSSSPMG
Test: SPR; KD of SG1 / KD of variant;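 note: relative to parent M103205H795-SG1 carrying the SG1 human heavy chain constant region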

| Binder | KD fold (SG1 = 1) [fold] |
| --- | --- |
| B1 | 4.9 |
| B2 | 1.4 |
